Experimental data from patent US20140113854A1 (NATIONAL RESEARCH COUNCIL OF CANADA, published 2014).
Positions of bridges follow the written chain, without caps; N, C: chain ends. Non-standard residues stand in square brackets, D forms with d. Chains are numbered I, II in the order given. No end group written: not given here. *: point of attachment. Benzenesulfonyl(4-tBu) = CC(C)(C)c1ccc(S(=O)(=O)*)cc1; dPip = O=C(O)[C@H]1CCCCN1

Key:
Human α-thrombin [1] = biological target: T1, Human α-thrombin (human, UniProt P00734 328-363; P00734 364-622); assay: cell-based or functional assay
Human α-thrombin [2] = biological target: T1, Human α-thrombin; assay: cell-based or functional assay; remark: listed apart in the source
Human α-thrombin [3] = biological target: T1, Human α-thrombin; assay: cell-based or functional assay; remark: listed apart in the source
Human α-thrombin [4] = biological target: T1, Human α-thrombin; assay: enzyme kinetics, thrombin-catalysed chromogenic substrate hydrolysis, 37 °C
Human α-thrombin [5] = biological target: T1, Human α-thrombin; assay: inhibition of thrombin by monovalent active-site moiety; conditions not given at the table
Human α-thrombin [6] = biological target: T1, Human α-thrombin; assay: derived from Ki and punfold (KD = Ki x popen), S-2366 kinetics, 37 °C
Source text: (§1) Human α-thrombin was purchased from Haemotologic Technologies, Inc., VT, USA.

Human α-thrombin [7] = biological target: T1, Human α-thrombin; assay: inhibition of thrombin-catalysed hydrolysis of chromogenic substrate S-2366, 25 °C
Source text: as §1

Human α-thrombin [8] = biological target: T1, Human α-thrombin; assay: inhibition of thrombin-catalysed hydrolysis of chromogenic substrate S-2366, 37 °C
Source text: as §1

rat-tail collagen type I [9] = biological target: T2, rat-tail collagen type I (rat, UniProt P02454 152-1207; P02466 86-1125); assay: NMR in collagen hydrogel
T2 construct: Used in solution and as randomly deposited or partially aligned hydrogel; Human collagen gels were also prepared; also called collagen hydrogel; rat collagen

Human α-thrombin [10] = biological target: T1, Human α-thrombin; assay: inhibition of thrombin-catalysed hydrolysis of chromogenic substrate S-2366, 37 °C; remark: listed apart in the source
Human α-thrombin [11] = biological target: T1, Human α-thrombin; assay: cell-based or functional assay; remark: listed apart in the source
rat-tail collagen type I [12] = biological target: T2, rat-tail collagen type I; assay: deuterium NMR of collagen gel formed with the peptide; called a semi-quantitative indication of peptide-collagen binding
Human α-thrombin [13] = biological target: T1, Human α-thrombin; assay: thrombin inhibition, 37 °C
Human α-thrombin [14] = biological target: T1, Human α-thrombin; assay: enzyme kinetics, thrombin-catalysed chromogenic substrate hydrolysis, 37 °C, 50 s window
Human α-thrombin [15] = biological target: T1, Human α-thrombin; assay: inhibition of human α-thrombin
rat-tail collagen type I [16] = biological target: T2, rat-tail collagen type I; assay: proton NMR and deuterium coupling constant of collagen gel

T2 sequence (P02454 152-1207 limits assumed, chain 1 of 2): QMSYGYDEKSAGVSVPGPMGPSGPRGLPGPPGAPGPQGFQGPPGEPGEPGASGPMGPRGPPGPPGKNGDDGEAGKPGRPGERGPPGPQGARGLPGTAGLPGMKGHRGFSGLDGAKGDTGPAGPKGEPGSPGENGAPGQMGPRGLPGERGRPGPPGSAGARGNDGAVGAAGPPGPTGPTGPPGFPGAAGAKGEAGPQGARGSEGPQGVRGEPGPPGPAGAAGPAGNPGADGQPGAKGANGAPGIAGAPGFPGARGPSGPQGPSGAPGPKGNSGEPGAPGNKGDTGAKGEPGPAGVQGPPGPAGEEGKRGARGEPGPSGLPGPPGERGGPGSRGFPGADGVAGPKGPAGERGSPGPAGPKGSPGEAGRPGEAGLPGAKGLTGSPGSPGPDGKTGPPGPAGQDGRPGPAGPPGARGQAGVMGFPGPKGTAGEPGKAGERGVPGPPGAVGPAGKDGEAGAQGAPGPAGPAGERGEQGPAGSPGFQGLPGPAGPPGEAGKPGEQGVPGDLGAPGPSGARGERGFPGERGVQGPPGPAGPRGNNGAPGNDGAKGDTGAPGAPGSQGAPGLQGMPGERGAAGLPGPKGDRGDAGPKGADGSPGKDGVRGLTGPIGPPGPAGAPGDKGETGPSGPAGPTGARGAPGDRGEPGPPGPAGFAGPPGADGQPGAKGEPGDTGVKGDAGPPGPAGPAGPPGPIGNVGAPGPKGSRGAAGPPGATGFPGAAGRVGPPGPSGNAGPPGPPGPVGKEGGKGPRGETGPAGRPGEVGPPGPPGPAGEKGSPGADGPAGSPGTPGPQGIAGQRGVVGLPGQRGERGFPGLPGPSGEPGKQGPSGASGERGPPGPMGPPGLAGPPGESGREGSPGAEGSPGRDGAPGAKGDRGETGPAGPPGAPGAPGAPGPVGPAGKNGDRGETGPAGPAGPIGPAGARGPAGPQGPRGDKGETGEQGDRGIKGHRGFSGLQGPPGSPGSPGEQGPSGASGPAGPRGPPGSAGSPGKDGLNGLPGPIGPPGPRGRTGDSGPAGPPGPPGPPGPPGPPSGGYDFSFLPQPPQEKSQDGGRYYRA
T2 sequence (P02466 86-1125 limits assumed, chain 2 of 2): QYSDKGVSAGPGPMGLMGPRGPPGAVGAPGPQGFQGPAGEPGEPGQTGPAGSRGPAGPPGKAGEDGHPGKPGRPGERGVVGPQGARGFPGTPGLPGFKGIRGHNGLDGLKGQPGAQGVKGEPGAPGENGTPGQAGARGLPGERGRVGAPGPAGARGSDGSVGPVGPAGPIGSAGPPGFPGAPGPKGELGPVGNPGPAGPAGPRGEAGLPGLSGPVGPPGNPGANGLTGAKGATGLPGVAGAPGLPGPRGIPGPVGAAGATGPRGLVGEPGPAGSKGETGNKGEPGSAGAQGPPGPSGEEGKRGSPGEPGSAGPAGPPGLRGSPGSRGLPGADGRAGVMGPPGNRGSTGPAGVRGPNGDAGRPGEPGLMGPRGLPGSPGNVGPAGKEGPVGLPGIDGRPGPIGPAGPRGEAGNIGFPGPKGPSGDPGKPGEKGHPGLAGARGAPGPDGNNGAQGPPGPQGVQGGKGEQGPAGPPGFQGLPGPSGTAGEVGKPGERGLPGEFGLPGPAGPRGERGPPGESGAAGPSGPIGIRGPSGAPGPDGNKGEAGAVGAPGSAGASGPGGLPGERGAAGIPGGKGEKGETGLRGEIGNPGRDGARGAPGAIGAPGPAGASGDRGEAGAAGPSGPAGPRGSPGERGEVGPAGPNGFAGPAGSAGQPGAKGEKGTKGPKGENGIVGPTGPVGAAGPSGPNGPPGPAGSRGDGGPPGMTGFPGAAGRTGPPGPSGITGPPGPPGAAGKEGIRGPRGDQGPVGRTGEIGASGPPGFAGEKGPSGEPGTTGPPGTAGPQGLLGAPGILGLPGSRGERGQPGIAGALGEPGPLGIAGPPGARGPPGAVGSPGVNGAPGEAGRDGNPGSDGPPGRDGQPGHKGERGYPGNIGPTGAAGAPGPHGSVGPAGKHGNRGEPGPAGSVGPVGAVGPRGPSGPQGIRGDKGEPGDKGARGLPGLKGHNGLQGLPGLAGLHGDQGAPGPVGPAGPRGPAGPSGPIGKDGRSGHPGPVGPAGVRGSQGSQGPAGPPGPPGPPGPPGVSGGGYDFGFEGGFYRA

## IRFTDGEWTWDDATKTWTWTEGDFEEIPEEYLQ (ends and bridges not checked; also: 15N-labelled) [MH2-wZIP4]
Human α-thrombin [1]
  IC50, fibrinogen clotting assay, 25 °C: 245 nM
  IC50, fibrinogen clotting assay, 37 °C: 154 nM
  IC50, fibrinogen clotting assay, 42 °C: 148 nM
Human α-thrombin [2]
  IC50, T = 37° C.: 154 nM
Human α-thrombin [3]
  KI (Thrombin Inhibition); IC50 by the clotting assay, 37 °C: 154 nM

## IRFTDGEWTYDDATKTFTVTEGDFEEIPEEYLQ (ends and bridges not checked) [MH2-gb1]
Human α-thrombin [1]
  IC50, fibrinogen clotting assay, 25 °C: 49 nM
  IC50, fibrinogen clotting assay, 37 °C: 86 nM

B1: BRI-T109 (peptide)
peptide: PRFTDGEWTWDDATKTWTWTEGDFEEIPEEYLQ
notes: MH2-wZIP4 with the first residue Ile replaced by Pro; also called P4230
Human α-thrombin [4]
  Ki: 1450 nM

## IRFTDGEWTYDDATKTFTWTEGDFEEIPEEYLQ [MH2-wZIP5]
Human α-thrombin [1]
  IC50, fibrinogen clotting assay, 25 °C: 80 nM
  IC50, fibrinogen clotting assay, 37 °C: 107 nM
Human α-thrombin [3]
  KI (Thrombin Inhibition); IC50 by the clotting assay, 37 °C: 107 nM

## IRFTDGEWTWDDATKTWTVTEGDFEEIPEEYLQ [MH2-wZIP6]
Human α-thrombin [1]
  IC50, fibrinogen clotting assay, 25 °C: 47 nM
  IC50, fibrinogen clotting assay, 37 °C: 53 nM
Human α-thrombin [3]
  KI (Thrombin Inhibition); IC50 by the clotting assay, 37 °C: 53 nM

## IRFTDG (Monovalent active-site moiety)
Human α-thrombin [5]
  Ki: 7000 nM

B2: BTI2 (peptide)
peptide: XRXGEWTYDDATKTFTVTEGDFEEIPEEYLQ
modifications: N-terminal Bbs (4-tert-butyl-benzenesulfonyl) on Arg; D-pipecolic acid (D-Pip) after Arg
notes: gb1 linker
Human α-thrombin [6]
  Kd: 2.8 nM

B3: BTI4 (peptide)
peptide: XRXGEWTYDDATKTFTWTEGDFEEIPEEYLQ
modifications: N-terminal Bbs (4-tert-butyl-benzenesulfonyl) on Arg; D-pipecolic acid (D-Pip) after Arg
Human α-thrombin [6]
  Kd: 2.8 nM

## IRFTDGSWTWEGNKWTWKGDFEEIPEEYLQ (also called P4269) [MH2-wZIP1]
Human α-thrombin [4]
  Ki: 18.4 nM

## IRFTDGSGSGSGSGSGSGDFEEIPEEYLQ (ends and bridges not checked, (GS)6 linker) [MH2-allGS]
Human α-thrombin [7]
  Ki: 30 nM
Human α-thrombin [4]
  Ki: 58 nM
Human α-thrombin [8]
  Ki: 50 nM

## IRFTDGEGTGSGSGSGSGDFEEIPEEYLQ (ends and bridges not checked, GEGT(GS)4 linker; comparative control) [MH2-GS]
rat-tail collagen type I [9]
  binding result: no binding
Human α-thrombin [10]
  Ki: 60 nM
Human α-thrombin [7]
  Ki: 27 nM
Human α-thrombin [8]
  Ki: 59 nM

## FQPRPRFTDGEWTWDDATKTWTWTEGDFEEIPEEYL (also called P4223) [BRI-T207]
Human α-thrombin [4]
  Ki: 404 nM

## WDPRIRFTDGEWTWDDATKTWTWTEGDFEEIPEEYL [BRI-T219]
Human α-thrombin [4]
  Ki: 164 nM

## VRFTDGEGTPKPQSHDNGDFEEIPEEYLQ (ends and bridges not checked) [MH1]
Human α-thrombin [11]
  IC50 (assay not given): ~33 nM

B4: MH2 (peptide)
peptide: IRFTDGEGTPNPESHNNGDFEEIPEEYLQ
modifications: ends and bridges not checked; also: uniformly 15N-labelled
notes: Linker HV2(42-53); Uniformly 15N-labelled for the NMR work; also called mini-hirudin 2
Human α-thrombin [2]
  IC50, T = 37° C.: 14 nM
Human α-thrombin [7]
  Ki: 34 nM
Human α-thrombin [11]
  IC50 (assay not given): ~14 nM
Human α-thrombin [8]
  Ki: 67 nM

## GEWTWDDATKTWTWTE-NH2 (Isolated linker peptide) [trpzip4-NH2]
rat-tail collagen type I [12]
  reduction of the deuterium coupling constant (collagen fibril alignment): > 1 Hz

## GEWTWDDATKTWTVTE-NH2 (Isolated linker peptide) [trpzip6-NH2]
rat-tail collagen type I [12]
  reduction of the deuterium coupling constant (collagen fibril alignment): < 0.5 Hz

## [dF]PRPRFTDGEWTWDDATKTWTWTEGDFEEIPEEYL (ends and bridges not checked, also called P4229) [BRI-T208]
Human α-thrombin [13]
  fold reduction of Ki as compared to BRI-T207: ~13 fold
  fold reduction of Ki as compared to MH2-wZIP4: ~5 fold
Human α-thrombin [4]
  Ki: 28 nM

## [dF]PRIRFTDGEWTWDDATKTWTWTEGDFEEIPEEYL (ends and bridges not checked, also called P4238) [BRI-T218]
Human α-thrombin [14]
  Ki: 14 nM

B5: TWE1 (peptide)
peptide 1: {Benzenesulfonyl(4-tBu)}-R[dPip]GC
peptide 2: CGSGSGSGSGSGSGSGSGDFEEIPEEYLQ
modifications: disulfide I:4-II:1; ends not checked; also: uniformly 15N-labelled
notes: Analog of BTI1 in which the two parts are joined by a disulfide bond
Human α-thrombin [15]
  Ki: 2.2 nM

## GEWTYDDATKTFTWTE-NH2 (Isolated linker peptide) [trpzip5-NH2]
rat-tail collagen type I [12]
  reduction of the deuterium coupling constant (collagen fibril alignment): < 0.5 Hz

## GEWTYDDATKTFTVTE-NH2 (Isolated linker peptide) [gb1-NH2]
rat-tail collagen type I [16]
  binding result: no binding

## IRFTDGGSWTWEGNKWTWKGGDFEEIPEEYLQ (also called P4268) [MH2-wZIP1-2G]
Human α-thrombin [4]
  Ki: 16.6 nM
